Data reported in the supplement of paper PMC7125110.
± gives the standard error. Fewer inactive variants are shown than the library holds.

B1: glmS ribozyme (parent)
chain: AUAAAAGCGCCAGAACUACAGAAAUGUAGUUGACGAGGAGGAGGUUUAUCGAAUUUUCGGCGGAUGCCUCCAAA

Variants of: B1
Experiment: self-cleavage kobs at 2500 uM GlcN6P; higher = faster cleavage; RNA array
Settings: with glucosamine-6-phosphate
Outline: (§1)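 A hybridised Cy3 probe tracked barcoded ribozyme variants, transcribed in situ by E. coli RNA polymerase on sequenced MiSeq chips, at 37 °C. The variants received 40 μM to 10 mM glucosamine-6-phosphate in HEPES/KCl/Mg(OAc)2 buffer. kobs came from decay fits and kcat and KM from weighted Michaelis–Menten fits.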

| Variant | self-cleavage kobs at 2500 uM GlcN6P [s⁻¹] |
| --- | --- |
| A14C U31A U54C U57A | 0.000121 ± 3.3e-05 |
| G43C U46G C58A | < 1e-05 |
| A33C G63A C68A | < 1e-05 |
| U45C U47G | 0.000218 ± 9.6e-05 |
| C8A G35C A53U G60A | < 1e-05 |
| C10U A52U A53U U55C U65G | < 1e-05 |
| A15U G29C G40U | 3.13e-05 ± 1.2e-05 |
| A24C G40U | 0.00193 ± 0.0007 |
| A36C G43C G51C C61A C71U | < 1e-05 |
| G38A C50G U57C | 0.000163 ± 6.6e-05 |
| A48G C50A U69G | 0.000106 ± 3e-05 |
| A48G U55A C70A | 8.47e-05 ± 2.9e-05 |
| C8U A15G G43A | < 1e-05 |
| C10U G43C C61U C70U | < 1e-05 |
| G21U G29C A42G | 0.000483 ± 0.00016 |
| G9C G66C | < 1e-05 |
| A6G G29C A33C U47G | < 1e-05 |
| A53G C58U | 1.96e-05 ± 7.8e-06 |
| C16G G51U U57G | < 1e-05 |
| A14G G40C G41C A48G C71G | < 1e-05 |
| A12G G44U G59C G60C | < 1e-05 |
| U46A A48U G51C | < 1e-05 |
| A36U U65A C68U | < 1e-05 |

| Variant | self-cleavage kobs at 2500 uM GlcN6P [s⁻¹] |
| --- | --- |
| C16U U55G C67G | 0.000952 ± 0.00032 |
| A14U G29U A48U A53U G62U | < 1e-05 |
| A15U C50G C70A | 0.000427 ± 0.00013 |
| A52G U54C C70U C71G | 7e-05 ± 2.3e-05 |
| U46A A48U | 6.88e-05 ± 2.5e-05 |
| G7U G9C U57A G60C | < 1e-05 |
| G40U U57A C61G | < 1e-05 |
| C8U A42C U46A U55A | < 1e-05 |
| C11G C16U G51A U65A C67G | 8.38e-05 ± 3e-05 |
| G32U G35U A53G C58A | < 1e-05 |
| A15C A39U G59C U69C | < 1e-05 |
| A14U U65A U69C | 0.000173 ± 4.9e-05 |
| A15G U30A C71U | 0.0164 ± 0.0034 |
| U45A U47G U54G U56C | 0.00285 ± 0.00062 |
| A6G G7U C70G | 5.26e-05 ± 2.1e-05 |
| G37A C68A C70U | < 1e-05 |
| G37A C68A C70G | < 1e-05 |
| G32U G37A G63C | < 1e-05 |
| U47G U54G U57C | 0.00011 ± 2.6e-05 |
| U45C A48C U65G C70G | < 1e-05 |
| A15U U49G G66U | < 1e-05 |
| A36G A48G U69C | < 1e-05 |
| C11U C50A G51U C61A | 9.9e-05 ± 3.3e-05 |

| Variant | self-cleavage kobs at 2500 uM GlcN6P [s⁻¹] |
| --- | --- |
| A53U U54G U55A C71U | 0.00523 ± 0.0019 |
| C11U C16G G32A A42U C70U | < 1e-05 |
| C10G G43U A64G | < 1e-05 |
| G32U G40U U45A | 4.53e-05 ± 1.3e-05 |
| U31C A42U A52C C71A | < 1e-05 |
| C61U G63C C71U | < 1e-05 |
| A39U A52C C67G U69G | < 1e-05 |
| C11G A15G A39C G40A | < 1e-05 |
| A15C A36C A48U U57C | < 1e-05 |
| G7A G43A C70A | < 1e-05 |
| C16A G66A C68U | 6.12e-05 ± 1.5e-05 |
| C34U G44U U49A | < 1e-05 |
| G9C G60A C67U | < 1e-05 |
| A14C G43A C61U | < 1e-05 |
| A42U C50G G51C U69G C71G | < 1e-05 |
| A12U A15U C50G C70G | 0.000215 ± 5.7e-05 |
| U30G G35A G51A C70A | < 1e-05 |
| A36C U49A U56A | < 1e-05 |
| C16U U31C A53C U56A C70U | 0.000183 ± 4.6e-05 |
| A12U U31C G44U C67A | 0.00303 ± 0.001 |
| A6U C58G C70A | 0.00016 ± 5.2e-05 |
| G13U A42C C71G | < 1e-05 |
| G7C A53U U54G | < 1e-05 |

| Variant | self-cleavage kobs at 2500 uM GlcN6P [s⁻¹] |
| --- | --- |
| G29U A36U C70G | 0.000444 ± 0.0001 |
| A14G G32C C58A A64G | 9.27e-05 ± 3e-05 |
| A15G G59U G63U | < 1e-05 |
| A14G A53C U57G | 0.000168 ± 5.2e-05 |
| A36G G40U U45C C67U | < 1e-05 |
| A15C U47G C68G | 5.59e-05 ± 1.6e-05 |
| G51U C68U C71U | < 1e-05 |
| A14G G38C C61U | < 1e-05 |
| G35U G37U G43U G44A | < 1e-05 |
| G43A G66C C71A | < 1e-05 |
| C11A A33C A53C A64C | < 1e-05 |
| G26U G29U U55A C70A | 8.18e-05 ± 2.7e-05 |
| U30G G43C A48C | < 1e-05 |
| U46A U49A G63C C67G | < 1e-05 |
| C8A C16U U56A | < 1e-05 |
| C10U A53G C61A C67G | 8.38e-05 ± 4.1e-05 |
| A14U C16U C58U | 5.54e-05 ± 1.5e-05 |
| C8A A39G A48U | < 1e-05 |
| U30C U45A U55A C67U | 0.00196 ± 0.00072 |
| C16A A36G C67G | < 1e-05 |
| A42G G51C G62A | < 1e-05 |
| A64G C68G C71G | 0.000122 ± 3.9e-05 |
| A48C G63A C71A | < 1e-05 |

| Variant | self-cleavage kobs at 2500 uM GlcN6P [s⁻¹] |
| --- | --- |
| G7U U57G G60U | < 1e-05 |
| C16G G37A A48G G60A U65G C67U | < 1e-05 |
| U31G G35C G41A A53U G63A | < 1e-05 |
| A12C C16U C50U | 3.9e-05 ± 1.5e-05 |
| U31C C34G G35U C68G | 0.000147 ± 6.7e-05 |
| A12C G40U U54A | 0.000324 ± 6.9e-05 |
| G40U G51U G59A | < 1e-05 |
| G35U U57A U69A | < 1e-05 |
| U45G A64U C68U | < 1e-05 |
| G29U U49A C70G | 5.3e-05 ± 1.9e-05 |
| U31A A52G C70G | 5.02e-05 ± 1.1e-05 |
| A53C U65C | 0.000159 ± 3.9e-05 |
| G51C G63A C68A | < 1e-05 |
| U31C A36U U47C | < 1e-05 |
| A14G A53G G66A | 0.0162 ± 0.0057 |
| G35C A52C C58U | < 1e-05 |
| G32A U45C | 0.000112 ± 3.8e-05 |
| G40U U46C A64G | 9.83e-05 ± 2.4e-05 |
| A14G G63C A64U | < 1e-05 |
| A12C G35U A36G U65G | < 1e-05 |
| A15G A39U A64C | 0.000106 ± 2.7e-05 |
| A14G A33U G43C G62A | < 1e-05 |
| C11U U31G A53C | 0.000433 ± 0.0001 |

| Variant | self-cleavage kobs at 2500 uM GlcN6P [s⁻¹] |
| --- | --- |
| C8G A33C U56C G63U | < 1e-05 |
| G7U G41A A64U | < 1e-05 |
| C8U U30A U46G | < 1e-05 |
| C10G C16G G35A A53U A64C | < 1e-05 |
| G9U C10U C34U A53U G63U | < 1e-05 |
| A36U G38C U47G | < 1e-05 |
| A12C A36U U46G | < 1e-05 |
| U30C A39U U56G | 2.5e-05 ± 1.2e-05 |
| C10U U30A U46G | < 1e-05 |
| C34U C68U | < 1e-05 |
| A6C G9A G32A | < 1e-05 |
| C11G C67A | < 1e-05 |
| U30C C58G C70U | 5.76e-05 ± 1.9e-05 |
| C50U A53U G62C | < 1e-05 |
| A6U G7C A15U G29C G38A G44A C61A | < 1e-05 |
| G9U G41U G60U C70U | < 1e-05 |
| U30A G32U C50A | < 1e-05 |
| G37A G44U G51U G66A | < 1e-05 |
| G37U G44C U57C C67A | < 1e-05 |
| A33G U47A A53G C70U | < 1e-05 |
| A12U C16A A42U G51U | < 1e-05 |
| C58G C67A C70U C71U | 7.14e-05 ± 2.7e-05 |
| U31G A52C C58G | < 1e-05 |

| Variant | self-cleavage kobs at 2500 uM GlcN6P [s⁻¹] |
| --- | --- |
| C8U G9U G63U | < 1e-05 |
| U45C C61U C70G | < 1e-05 |
| C34G G37C G60U G63C | < 1e-05 |
| C8U C11A G32A U56G | < 1e-05 |
| A12U U49G G59C | < 1e-05 |
| A48U U69A | 2.8e-05 ± 1.3e-05 |
| C11U A12G U31G | 0.000738 ± 0.00012 |
| G32A A39C C50U | < 1e-05 |
| G13A U46C G60A | < 1e-05 |
| G7A C8G G9C C10G A12C G13A A14G C16A G41C G66U | < 1e-05 |
| A15U G51C C71U | < 1e-05 |
| G29A G32U G60C | < 1e-05 |
| A14C G37C G62C | < 1e-05 |
| A12G A14U G41A G43A C50U G51A | < 1e-05 |
| G9A G43C U45G U65C | < 1e-05 |
| C10A G44C A48C | < 1e-05 |
| A39U A53U C70G | 0.0003 ± 7.6e-05 |
| U31G G38C G43U U47A A48C | < 1e-05 |
| C11G G37A U49G G60U | < 1e-05 |
| G7U C8U G35C G62A | < 1e-05 |
| G7U A12C A36C A39U U47C | < 1e-05 |
| U45A G51U U54G G63C | < 1e-05 |

Variants of: B1
Experiment: self-cleavage kobs at 10000 uM GlcN6P; higher = faster cleavage; RNA array
Settings: with glucosamine-6-phosphate
Outline: as §1

| Variant | self-cleavage kobs at 10000 uM GlcN6P [s⁻¹] |
| --- | --- |
| A14C U31A U54C U57A | 9.39e-05 ± 1.9e-05 |
| A53G C58U | 0.000105 ± 9.8e-06 |
| A14U G29U A48U A53U G62U | < 1e-05 |
| A14U U65A U69C | 0.000191 ± 3.3e-05 |
| C16U U31C A53C U56A C70U | 0.000335 ± 8.2e-05 |
| C11A A33C A53C A64C | < 1e-05 |
| U31C C34G G35U C68G | 0.000118 ± 4.1e-05 |
| U31A A52G C70G | 6.16e-05 ± 1.8e-05 |
| G35C A52C C58U | < 1e-05 |
| G32A U45C | 9.73e-05 ± 2.3e-05 |
| U30C A39U U56G | 9.2e-05 ± 2.1e-05 |
| A6U G7C A15U G29C G38A G44A C61A | < 1e-05 |
| C11U A12G U31G | 0.00126 ± 0.0003 |
| G9A G43C U45G U65C | < 1e-05 |
| A39U A53U C70G | 0.000276 ± 5e-05 |
